Data as given in IntAct's records for PubMed 18354482.

B1: RE1-silencing transcription factor (Homo sapiens), Q13127 (parent)
chain: MATQVMGQSSGGGGLFTSSGNIGMALPNDMYDLHDLSKAELAAPQLIMLANVALTGEVNGSCCDYLVGEERQMAELMPVGDNNFSDSEEGEGLEESADIKGEPHGLENMELRSLELSVVEPQPVFEASGAPDIYSSNKDLPPETPGAEDKGKSSKTKPFRCKPCQYEAESEEQFVHHIRVHSAKKFFVEESAEKQAKARESGSSTAEEGDFSKGPIRCDRCGYNTNRYDHYTAHLKHHTRAGDNERVYKCIICTYTTVSEYHWRKHLRNHFPRKVYTCGKCNYFSDRKNNYVQHVRTHTGERPYKCELCPYSSSQKTHLTRHMRTHSGEKPFKCDQCSYVASNQHEVTRHARQVHNGPKPLNCPHCDYKTADRSNFKKHVELHVNPRQFNCPVCDYAASKKCNLQYHFKSKHPTCPNKTMDVSKVKLKKTKKREADLPDNITNEKTEIEQTKIKGDVAGKKNEKSVKAEKRDVSKEKKPSNNVSVIQVTTRTRKSVTEVKEMDVHTGSNSEKFSKTKKSKRKLEVDSHSLHGPVNDEESSTKKKKKVESKSKNNSQEVPKGDSKVEENKKQNTCMKKSTKKKTLKNKSSKKSSKPPQKEPVEKGSAQMDPPQMGPAPTEAVQKGPVQVEPPPPMEHAQMEGAQIRPAPDEPVQMEVVQEGPAQKELLPPVEPAQMVGAQIVLAHMELPPPMETAQTEVAQMGPAPMEPAQMEVAQVESAPMQVVQKEPVQMELSPPMEVVQKEPVQIELSPPMEVVQKEPVKIELSPPIEVVQKEPVQMELSPPMGVVQKEPAQREPPPPREPPLHMEPISKKPPLRKDKKEKSNMQSERARKEQVLIEVGLVPVKDSWLLKESVSTEDLSPPSPPLPKENLREEASGDQKLLNTGEGNKEAPLQKVGAEEADESLPGLAANINESTHISSSGQNLNTPEGETLNGKHQTDSIVCEMKMDTDQNTRENLTGINSTVEEPVSPMLPPSAVEEREAVSKTALASPPATMAANESQEIDEDEGIHSHEGSDLSDNMSEGSDDSGLHGARPVPQESSRKNAKEALAVKAAKGDFVCIFCDRSFRKGKDYSKHLNRHLVNVYYLEEAAQGQE

Variants of: B1
Settings: with fbw1a_human BTRC

Effect of a mutation on the interaction, disrupting interaction strength:
E1009A;S1013A
S1013A
E1009A
